# Results taken from US20240083996A1, “COMPOSITION FOR PROPHYLAXIS OR TREATMENT OF IL-8 RELATED DISEASES” (Chugai Seiyaku Kabushiki Kaisha, priority 2016, published 2024).
# B1: H1009/L395-F1974m: H1009-F1974m (SEQ ID NO:36) heavy chain, L395-kOMT light chain; the anti-IL-8 antibody of Table 29 (antibody)
# heavy: QVQLVESGGGLVQPGGSLRLSCAASGFTFSDYYLSWVRQAPGKGLEWVGLIRNKDNYHTPEYSASVKGRFTISRDDSKNSLYLTMSDLKTEDTAVYYCARENHRYDVELAYWGQGTLVTVSSASTKGPSVFPLAPSSKSTSGGTAALGCLVKDYFPEPVTVSWNSGALTSGVHTFPAVLQSSGLYSLSSVVTVPSSSLGTQTYICNVNHKPSNTKVDKKVEPKSCDKTHTCPPCPAPELRRGPSVFLFPPKPKDTLMISRTPEVTCVVVDVSHEDPEVKFNWYVDGVEVHNAKTKPREEQYNSTYRVVSVLTVLHQDWLNGKEYKCKVSNKGLPSSIEKTISKAKGQPREPQVYTLPPSREEMTKNQVSLTCLVKGFYPSDIAVEWESNGQPENNYKTTPPVLDSDGSFFLYSKLTVDKSRWQQGNVFSCSVLHEALHAHTTRKELSLSP
# light: DIQMTQSPSSLSASVGDRVTITCRASEIIYSYLAWYQQKPGKAPKLLIYKAKTHADGVPSRFSGSGSGTDFTFTISSLQPEDIATYYCKHHFGFPRTFGQGTKVEIKRTVAAPSVFIFPPSDEQLKSGTASVVCLLNNFYPREAKVQWKVDNALQSGNSQESVTEQDSKDSTYSLSSTLTLSKADYEKHKVYACEVTHQGLSSPVTKSFNRGEC
# Key:
# Type in all cases: in vivo, cynomolgus monkeys
# adenomyosis lesions = experiment: Adenomyosis complication in surgically-induced endometriosis monkey models; details: one case per group, compared to the vehicle group (FIG. 37)
# Source text: After the final laparoscopic observation six months after the start of antibody administration in surgically-induced endometriosis monkey models, the uteri collected during autopsy were fixed with 10% neutral buffered formalin and HE-stained for observation. Endometrial tissues analogous to those of adenomyosis were strongly seen in the uterus in one case of the vehicle group as well as in one case of the antibody administration group. […] Thus, the monkeys were considered as being a human adenomyosis complication model, and the endometrial tissues in the myometria of these single cases were compared.
# post-surgical adhesion [1] = experiment: Post-surgical adhesion-induced monkey model; parameters: key: ○: Adhesion found; x: No adhesion; details: 10 mg/kg i.v. one hour or less after surgery, laparoscopy 24 to 35 days later; individuals #201, #206
# Protocol: To prepare a post-surgical adhesion-induced model, female cynomolgus monkeys 9 to 16 years of age (provided by the Tsukuba Primate Research Center at the National Institutes of Biomedical Innovation, Health and Nutrition) were treated under anesthesia as follows. Anesthesia was performed using balanced anesthesia of ketamine/xylazine (mixed at an adequate ratio of about 2:1) and isoflurane. An incision of 5 to 6 cm was made in the median line of the abdominal wall. After opening the abdomen, a 1-cm incision was made on the uterine corpus and sutured with 4 stitches using a single suture. Then, the whole uterus was brushed five times with gauze. Next, a 1-cm incision was made to the right abdominal wall peritoneal part at 2 cm from the incised median line of the abdominal wall and sutured by running suture with 4 stitches using an absorbable suture. After suture, the sutured part was brushed five times with gauze. Likewise, the peritoneum of left abdominal wall was incised, sutured, and brushed with gauze. Finally, the median line of abdominal wall was sutured by running suture with 10 to 11 stitches. The entire steps were completed in one hour or less. The antagonist Antisedan (in roughly the same amount as that of xylazine) and the antibiotic cephradine were administered at the time of awakening after surgery. Then, the pain reliever Zalban was administered for two days after surgery, and the monkeys were observed regularly every day to confirm the absence of post-surgical abnormalities. At laparoscopic observation, anesthesia and post-surgical monitoring were also performed in the same way.
# The control group was untreated. 24 to 35 days after administration of the anti-IL-8 antibody, laparoscopy was performed to observe the adhesion formed due to incision, suture, and blushing with gauze. The abdomen was incised in the median line under anesthesia, and laparoscopic observation was performed by inserting a trocar and then introducing a laparoscope. The laparoscope was connected to a video system (KARL STORZ) and a monitor. The video system was used for recording, and the monitor was used for intraperitoneal observation. The size of the adhesion was measured using a graduated bar or graduated forceps. The presence, range, and location of adhesion were assessed during laparoscopic observation. […] Although adhesion was found in individual No. 206 in the anti-IL-8 antibody administration group, no adhesion was found in the right and left abdominal wall peritoneum or at the uterine incision site in individual No. 201. […] Those skilled in the art will naturally appreciate that anti-IL-8 antibodies may exert a stronger adhesion formation-preventive effect by appropriately altering the timing of administration or such. […]
# post-surgical adhesion [2] = experiment: Adhesion after surgery (area surrounding the incision site) in surgically-induced endometriosis monkey models; details: 10 mg/kg; two months before versus six months after initiation of administration, five evaluators
# Protocol: Specifically, adhesion to the area surrounding the incision site on the abdominal wall was compared before and after administration and evaluated by five evaluators on a three-point scale: (1) Improved, (2) Stable, and (3) Progressed. Ratings with a consensus among three or more of the five evaluators were adopted; otherwise (2) Stable was used. Evaluations were carried out on six monkeys in the vehicle group as well as seven monkeys in the antibody […]/[…]-[…] administration group. […] The monkey with “Progressed” was an individual in which the blood concentration of antibody […]/[…]-[…] had decreased due to anti-antibody production.
molecule,measurement,setting,value
B1,histopathology of adenomyosis lesions in the uterus (HE staining),adenomyosis lesions,atrophy of endometrial epithelia in the adenomyosis lesions as well as reduction and atrophy of stromal cells were observed
same,adhesion at incision site: Abdominal wall Median line,post-surgical adhesion [1],○
same,adhesion at incision site: Peritoneum (L),post-surgical adhesion [1],○ and x
same,adhesion at incision site: Peritoneum (R),post-surgical adhesion [1],○ and x
same,adhesion at incision site: Uterus,post-surgical adhesion [1],○ and x
same,adhesion to the area surrounding the incision site: Improved (monkeys/group),post-surgical adhesion [2],6/7
same,adhesion to the area surrounding the incision site: Progressed (monkeys/group),post-surgical adhesion [2],1/7
same,adhesion to the area surrounding the incision site: Stable (monkeys/group),post-surgical adhesion [2],0/7
